For experiment [1], the target named is T1, Fhm, hTL1A(Q167R), soluble, E. coli-expressed, residues 72-251 of SEQ ID NO:246 (human, UniProt O95150 72-251).
T1 construct: with or without N-terminal Met
T1 chain: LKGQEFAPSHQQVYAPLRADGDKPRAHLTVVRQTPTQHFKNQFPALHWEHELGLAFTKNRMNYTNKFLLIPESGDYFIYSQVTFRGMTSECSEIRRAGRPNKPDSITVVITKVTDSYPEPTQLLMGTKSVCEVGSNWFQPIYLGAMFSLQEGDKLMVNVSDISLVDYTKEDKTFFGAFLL
Nature of the experiment: SPR 25C, mAb captured. The method, then: (§1) Measurements were conducted on a T100 BIACORE™ instrument. […] Kinetic association (kₐ) and dissociation (kd) rate constants were determined by fitting the data to a 1:1 binding model using BIAevaluation 4.1 curve fitting software (BIAcore Life Sciences). Molar concentrations of TL1A/Fhm used in the data fitting assumed a monomeric state for TL1A in solution. Binding dissociation equilibrium constants (KD) and dissociative half-lives (t_{1/2}) were calculated from the kinetic rate constants as: KD (M)=kd/kₐ; and t_{1/2} (min)=[In2/(60*kd)].

The target in experiment [2] is T2, cynomolgus monkey TL1A, soluble, E. coli-expressed, residues 72-251 of SEQ ID NO:248 (cynomolgus monkey (Macaca fascicularis), UniProt O95150 72-251 (human entry)).
T2 construct: with or without N-terminal Met; also called MfTL1A (E. Coli)
T2 chain: T1 chain with F39L, I78V, R96Q
The experiment can be described thus: SPR 25C, mAb captured. The method, then: as §1

Experiment [3] has as its target T2, cynomolgus monkey TL1A, soluble, E. …. The experiment can be described thus: SPR 37C, mAb captured. The method, then: as §1
The target of experiment [4] is T3, human TL1A, soluble, CHO-expressed, residues 72-251 of SEQ ID NO:244 with N-terminal His6-tag (human, UniProt O95150 72-251).
T3 construct: also called hTL1A; hTL1A (CHO)
T3 sequence: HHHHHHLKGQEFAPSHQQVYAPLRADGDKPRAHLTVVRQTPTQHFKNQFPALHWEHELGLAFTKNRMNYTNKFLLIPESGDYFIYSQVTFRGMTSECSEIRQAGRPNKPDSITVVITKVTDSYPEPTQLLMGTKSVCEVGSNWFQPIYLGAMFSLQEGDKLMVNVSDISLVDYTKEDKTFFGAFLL
The experiment can be described thus: ELISA, blocks hTL1A (150 pM) binding hDR3-Fc. The protocol:
(§2) The ability of antibodies to block human TL1A binding to its cognate receptors, the DR3 and DcR3 receptors, was measured using a competition sandwich ELISA. In addition, blocking of a human TL1A variant FHM (human TL1A Q167R) and the cynomolgus monkey (Macaca fascicularis) TL1A (MfTL1A) protein binding to the human DR3 or DcR3 receptors was measured in the same manner. Constant amounts of biotinylated human TL1A or FHM (both expressed with a 6-His tag in CHO cells) or biotinylated MfTL1A (expressed in CHO cells) were separately titrated with varying amounts of antibodies. The antibody-protein complexes were incubated in solution (1 hr, 25° C.) and then transferred to microtiter plates coated with human DR3 (hDR3) or human DcR3 (hDcR3) expressed as human IgG1 Fc fusion proteins. After one hour at 25° C. the wells were washed, and bound human or monkey TL1A was detected with streptavidin conjugated with horseradish peroxidase (HRP). Wells were developed with a TMB solution to produce a colorimetric reaction and quenched with aqueous sulfuric acid before reading absorbance at 450 nm on a Perkin-Elmer Victor X5 plate reader. A sigmoidal dose-response curve was fit to the data using the Prism™ data analysis package. […] Both fully human anti-hTL1A mAbs and comparator antibodies, i.e., control mAb1 (an anti-hTL1A antibody with heavy and light chain variable domains having the amino acid sequences corresponding to SEQ ID NOS:21 and 27, respectively, of US 2009/0280116) and control mAb3 (an anti-hTL1A antibody with heavy and light chain variable domains having the amino acid sequences corresponding to SEQ ID NOS:57 and 48, respectively, of US 2009/0280116), were included in the study. NB: No binding under the conditions tested; NT: Not tested. Concentrations of biotinylated soluble ligands: (1) 150 pM; (2) 500 pM; (3) 10 pM; and (4) 50 pM.
(In an ELISA, binding on a coated surface is turned into a signal by an enzyme label.)

In experiment [5] the target is T4, cynomolgus monkey TL1A, soluble, CHO-expressed, residues 72-251 of SEQ ID NO:248 with N-terminal His6-tag (cynomolgus monkey (Macaca fascicularis), UniProt O95150 72-251 (human entry)).
T4 construct: also called MfTL1A; MfTL1A (CHO)
T4 chain: T3 sequence with F45L, I84V
Nature of the experiment: ELISA, blocks MfTL1A (50 pM) binding hDcR3-Fc. The method, then:
as §2

Experiment [6] deals with T5, mouse TL1A, soluble, E. coli-expressed, residues 76-252 of SEQ ID NO:250 (mouse, UniProt Q5UBV8 76-252).
T5 construct: with or without N-terminal Met; also called mTL1A (E. Coli)
T5 sequence: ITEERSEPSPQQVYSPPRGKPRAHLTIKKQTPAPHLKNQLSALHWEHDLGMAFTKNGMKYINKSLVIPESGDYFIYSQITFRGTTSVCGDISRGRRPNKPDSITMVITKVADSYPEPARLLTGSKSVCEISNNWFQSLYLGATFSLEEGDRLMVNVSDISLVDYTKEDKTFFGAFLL
Nature of the experiment: SPR 25C, steady state. The method, then: Measurements were conducted on a T100 BIACORE™ instrument. […] Kinetic association (kₐ) and dissociation (kd) rate constants were determined by fitting the data to a 1:1 binding model using BIAevaluation 4.1 curve fitting software (BIAcore Life Sciences). Molar concentrations of TL1A/Fhm used in the data fitting assumed a monomeric state for TL1A in solution. […]

In experiment [7] the target is T4, cynomolgus monkey TL1A, soluble, …. The experiment can be described thus: ELISA, blocks MfTL1A (500 pM) binding hDR3-Fc. The protocol:
as §2

The target in experiment [8] is T3, human TL1A, soluble, CHO-expressed, …. The experiment can be described thus: ELISA, blocks hTL1A (10 pM) binding hDcR3-Fc. The method, then:
as §2

Experiment [9] concerns the target T6, Fhm, hTL1A(Q167R), soluble, CHO-expressed, residues 72-251 of SEQ ID NO:246 (human, UniProt O95150 72-251).
T6 construct: also called Fhm (CHO); FHM (CHO)
T6 chain: T3 sequence with Q102R
Nature of the experiment: ELISA, blocks FHM (10 pM) binding hDcR3-Fc; blocking of FHM binding to DcR3. The protocol: as §2

In experiment [10] the target is T7, human DR3, full-length, expressed on HEK293 NFkB-luciferase reporter cells (human, UniProt Q93038 25-417).
T7 sequence: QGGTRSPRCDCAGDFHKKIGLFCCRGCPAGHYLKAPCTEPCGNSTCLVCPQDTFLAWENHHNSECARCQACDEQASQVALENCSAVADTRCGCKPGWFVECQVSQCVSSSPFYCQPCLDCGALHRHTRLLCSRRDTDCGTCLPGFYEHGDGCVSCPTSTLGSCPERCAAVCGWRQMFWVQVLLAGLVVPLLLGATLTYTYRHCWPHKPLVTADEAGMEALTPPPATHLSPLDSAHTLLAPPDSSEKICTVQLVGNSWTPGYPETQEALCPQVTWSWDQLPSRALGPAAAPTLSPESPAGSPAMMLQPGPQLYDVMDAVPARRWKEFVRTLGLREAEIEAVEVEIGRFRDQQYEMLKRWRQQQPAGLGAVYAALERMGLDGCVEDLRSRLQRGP
Nature of the experiment: cell-based or functional assay.

In experiment [11] the target is T6, Fhm, hTL1A(Q167R), soluble, …. Nature of the experiment: ELISA, blocks FHM (10 pM) binding hDcR3-Fc. The method, then: as §2
For experiment [12] the target is unchanged. Nature of the experiment: ELISA, blocks FHM (150 pM) binding hDR3-Fc. The method, then:
as §2

Positions count from the first letter of the chain named. Names may count otherwise.

Broadly, the Kd is the concentration at which binding is half-saturated. In general, IC50 refers to the concentration that gives 50% inhibition.

B1: H2M1805N (antibody, V domains shown)
VH: QVQLQQWGAGLLKPSETLSLTCAVYGGSFTGFYWSWIRQPPGKGLEWIGEINHRGNTNYNPSLKSRVTMSVDTSKNQFSLNMISVTAADTAMYFCASPFYDFWSGSDYWGQGTLVTVSS
VL: DIMLTQTPLTSPVTLGQPASISCKSSQSLVHSDGNTYLSWLQQRPGQPPRLLFYKISNRFSGVPDRFSGSGAGTDFTLKISRVEAEDVGVYYCMQATQFPLTFGGGTKVEIK
notes: chimeric hybridoma antibody: human variable regions, mouse constant regions (mouse Fc)
For B1, the binding result in [1] and in experiment [6] was “no binding (tested: up to 100 nM)” each time. Also, the Kd was found to be 0.345 nM in experiment [2] and 0.439 nM in experiment [3]. In addition, the t1/2 in experiment [2] worked out at 67 min; in experiment [3], 36 min. For the same molecule, the half-maximal inhibitory concentration (IC50) in experiment [4] worked out at 0.006 nM; in [5], 1.14 nM; in [7], 0.013 nM; in experiment [8], 0.012 nM; in experiment [9] it was 2.24 nM.

B2: full length human TL1A expressed on HEK293 cells (ligand)
chain: MAEDLGLSFGETASVEMLPEHGSCRPKARSSSARWALTCCLVLLPFLAGLTTYLLVSQLRAQGEACVQFQALKGQEFAPSHQQVYAPLRADGDKPRAHLTVVRQTPTQHFKNQFPALHWEHELGLAFTKNRMNYTNKFLLIPESGDYFIYSQVTFRGMTSECSEIRQAGRPNKPDSITVVITKVTDSYPEPTQLLMGTKSVCEVGSNWFQPIYLGAMFSLQEGDKLMVNVSDISLVDYTKEDKTFFGAFLL
With B2, the “EC50 (cells), NFkB-luciferase reporter” value in experiment [10] is 23500 cells.

B3: full-length cynomolgus monkey TL1A expressed on HEK293 cells (ligand)
chain: B2 chain with R34C, F69L, A71D, F110L, I149V
In the case of B3, in [10], the “EC50 (cells), NFkB-luciferase reporter” value stood at 8460 cells.

B4: full-length Fhm, human TL1A(Q167R), expressed on HEK293 cells (ligand)
chain: B2 chain with Q167R
In the case of B4, the “EC50 (cells), NFkB-luciferase reporter” value in experiment [10] turned out to be 47900 cells.

B5: H2M1817N (antibody, V domains shown)
VH: QVQLQQWGAGLLKPSETLSLTCAVSGGSFSDYFWTWIRQPPGKGLEWIGEISHSGRTNYNPSLKSRVTISVDTSMSQFSLKMTSVTAADSAVYYCARDYPNWVFDYWGQGTLVTVSS
VL: EIELTQSPGTLSLSPGEGATLSCRASQSVFNSYLAWYQQKPGQAPRLLIYGASRRATGIPDRFSGSGSGTDFTLTISRLEPGDFAVYFCQQYGNSPLTFGGGTKVEIK
notes: as for B1
Regarding B5, the results for the Kd in experiment [1], in [2] and in [3] were 0.451 nM, 1.25 nM and 1 nM, respectively. Further, the figures for the t1/2 in experiment [1], in experiment [2] and in [3] were 57 min, 37 min and 30 min, respectively. In addition, the half-inhibitory concentration (IC50) in [11] is 0.666 nM; in experiment [12], 0.249 nM; in experiment [4] it was 0.154 nM; in experiment [5] it was 0.776 nM; in experiment [7], 0.137 nM; in [8], 0.89 nM. Moreover, the binding result in [6] is recorded as “no binding (tested: up to 100 nM)”.

B6: H2M1681N (antibody, V domains shown)
VH: EVQLLESGGGLVQPGKSLRLSCAVSGFTFSTYGMNWVRQAPGKGLEWVSSISGTGRTTYHADSVQGRFTVSRDNSKNILYLQMNSLRADDTAVYFCTKERGDYYYGVFDYWGQGTLVTVSS
VL: DIQMTQSPSTLSASVGDRVTITCRASQTISSWLAWYQQTPEKAPKLLIYAASNLQSGVPSRFSGSGSGTEFTLTISSLQPDDFATYYCQQYHRSWTFGQGTKVEIT
As to B6, the binding result in experiment [1] and in experiment [6] was “no binding (tested: up to 100 nM)” in each case. In addition, the dissociation constant (Kd) in experiment [2] worked out at 0.546 nM; in experiment [3], 1.5 nM. For the same molecule, the t1/2 stood at 54 min in experiment [2] and 14 min in experiment [3]. Also, the IC50 in experiment [4] was 0.037 nM; in experiment [5], 0.149 nM; in experiment [7], 0.061 nM; in [8] it was 0.013 nM; in experiment [9] it was 0.234 nM.
